Data from publication PMC11066007, “CORVET-specific subunit levels determine the balance between HOPS/CORVET endosomal tethering complexes” (Scientific Reports, 2024).

T1: VPS41-FLAG (human, UniProt P49754 1-854)
T1 construct: VPS41, human, HOPS-specific subunit; DNA region encoding the full-length protein fused with a FLAG tag; The label puts FLAG after the name, but the methods say N-terminal tags were used for VPS41 and VPS39; also called HOPS-specific VPS41; source: HEK293, stably transfected (pCMV3), in lysate; not shown: FLAG, N-terminal, kept
T1 sequence (looked up): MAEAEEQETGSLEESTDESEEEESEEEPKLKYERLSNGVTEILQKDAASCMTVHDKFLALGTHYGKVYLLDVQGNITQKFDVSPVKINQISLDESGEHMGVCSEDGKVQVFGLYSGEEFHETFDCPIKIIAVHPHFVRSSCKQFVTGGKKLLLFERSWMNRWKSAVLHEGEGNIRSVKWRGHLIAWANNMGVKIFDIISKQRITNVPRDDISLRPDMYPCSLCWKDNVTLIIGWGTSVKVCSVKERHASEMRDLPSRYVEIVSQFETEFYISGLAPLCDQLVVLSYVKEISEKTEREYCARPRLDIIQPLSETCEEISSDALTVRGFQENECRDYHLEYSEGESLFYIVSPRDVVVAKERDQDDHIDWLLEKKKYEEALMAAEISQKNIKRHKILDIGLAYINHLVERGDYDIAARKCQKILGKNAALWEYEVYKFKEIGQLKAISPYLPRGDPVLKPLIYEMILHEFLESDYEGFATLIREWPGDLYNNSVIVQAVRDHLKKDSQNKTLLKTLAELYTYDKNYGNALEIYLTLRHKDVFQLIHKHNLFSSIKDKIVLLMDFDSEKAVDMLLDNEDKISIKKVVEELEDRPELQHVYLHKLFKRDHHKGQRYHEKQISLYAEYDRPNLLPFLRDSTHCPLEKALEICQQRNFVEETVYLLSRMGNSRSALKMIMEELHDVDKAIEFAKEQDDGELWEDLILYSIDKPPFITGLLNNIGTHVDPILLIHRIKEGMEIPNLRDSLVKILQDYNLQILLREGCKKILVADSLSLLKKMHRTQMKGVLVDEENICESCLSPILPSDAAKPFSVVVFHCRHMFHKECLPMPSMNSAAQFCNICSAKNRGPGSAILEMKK

T2: VPS39-FLAG (human, UniProt Q96JC1 1-886)
T2 construct: VPS39, human, HOPS-specific subunit; DNA region encoding the full-length protein fused with a FLAG tag; also called HOPS-specific VPS39; not shown: FLAG, N-terminal, kept
T2 sequence (looked up): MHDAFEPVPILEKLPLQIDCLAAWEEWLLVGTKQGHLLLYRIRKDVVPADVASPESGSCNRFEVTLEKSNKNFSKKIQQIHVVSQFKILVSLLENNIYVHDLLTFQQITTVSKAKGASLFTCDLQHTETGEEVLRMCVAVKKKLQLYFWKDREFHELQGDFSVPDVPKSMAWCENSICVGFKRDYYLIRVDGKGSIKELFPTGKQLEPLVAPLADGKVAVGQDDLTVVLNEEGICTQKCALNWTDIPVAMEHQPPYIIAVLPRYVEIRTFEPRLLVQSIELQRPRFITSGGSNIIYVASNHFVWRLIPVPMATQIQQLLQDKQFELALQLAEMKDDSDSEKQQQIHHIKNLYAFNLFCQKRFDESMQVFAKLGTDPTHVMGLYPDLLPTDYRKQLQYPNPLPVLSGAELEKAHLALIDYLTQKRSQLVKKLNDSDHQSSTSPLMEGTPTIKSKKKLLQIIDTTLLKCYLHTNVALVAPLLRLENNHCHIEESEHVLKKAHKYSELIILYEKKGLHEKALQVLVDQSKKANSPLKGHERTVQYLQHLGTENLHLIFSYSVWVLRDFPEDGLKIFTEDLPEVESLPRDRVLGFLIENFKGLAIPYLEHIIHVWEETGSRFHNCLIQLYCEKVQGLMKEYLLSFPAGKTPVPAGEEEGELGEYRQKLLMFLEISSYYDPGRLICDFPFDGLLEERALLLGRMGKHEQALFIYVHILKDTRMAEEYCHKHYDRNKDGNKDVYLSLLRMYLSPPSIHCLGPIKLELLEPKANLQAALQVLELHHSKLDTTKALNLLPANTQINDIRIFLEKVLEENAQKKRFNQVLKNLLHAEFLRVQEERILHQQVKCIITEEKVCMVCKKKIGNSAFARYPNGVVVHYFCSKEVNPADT


What was measured:
[1] = target: T1, VPS41-FLAG; experiment: co-IP; anti-FLAG beads on total lysates of HEK293 cells stably transfected with a FLAG-tagged specific subunit, with or without transient overexpression of the counterpart subunit (control: pCMV); endogenous VPS11 and VPS18 detected by western blot, densitometry with ImageJ; lysis buffer 50 mM TRIS-HCl pH 7.5, 150 mM NaCl, 1% Triton X-100, 5 mM EDTA; 1.5 h at 4 °C; details: partners not purified
[2] = target: T2, VPS39-FLAG; experiment: as above; details: partners not purified

Row | relative amount bound with VPS8 overexpressed (control cells HEK + pCMV as reference) [1] | relative amount bound with Tgfbrap1-HA overexpressed (control cells HEK + pCMV as reference) [2] | Binder
1 | 0.69 relative to control cells | 0.63 relative to control cells | VPS18 (natural protein, human (endogenous in HEK293), UniProt Q9P253 1-973, looked up, VPS18, shared class C core subunit of HOPS and CORVET, detected by anti-VPS18 western blot in anti-FLAG precipitates; also called core subunit VPS18; source: endogenous, HEK293 lysate) MASILDEYENSLSRSAVLQPGCPSVGIPHSGYVNAQLEKEVPIFTKQRIDFTPSERITSLVVSSNQLCMSLGKDTLLRIDLGKANEPNHVELGRKDDAKVHKMFLDHTGSHLLIALSSTEVLYVNRNGQKVRPLARWKGQLVESVGWNKALGTESSTGPILVGTAQGHIFEAELSASEGGLFGPAPDLYFRPLYVLNEEGGPAPVCSLEAERGPDGRSFVIATTRQRLFQFIGRAAEGAEAQGFSGLFAAYTDHPPPFREFPSNLGYSELAFYTPKLRSAPRAFAWMMGDGVLYGALDCGRPDSLLSEERVWEYPEGVGPGASPPLAIVLTQFHFLLLLADRVEAVCTLTGQVVLRDHFLEKFGPLKHMVKDSSTGQLWAYTERAVFRYHVQREARDVWRTYLDMNRFDLAKEYCRERPDCLDTVLAREADFCFRQRRYLESARCYALTQSYFEEIALKFLEARQEEALAEFLQRKLASLKPAERTQATLLTTWLTELYLSRLGALQGDPEALTLYRETKECFRTFLSSPRHKEWLFASRASIHELLASHGDTEHMVYFAVIMQDYERVVAYHCQHEAYEEALAVLARHRDPQLFYKFSPILIRHIPRQLVDAWIEMGSRLDARQLIPALVNYSQGGEVQQVSQAIRYMEFCVNVLGETEQAIHNYLLSLYARGRPDSLLAYLEQAGASPHRVHYDLKYALRLCAEHGHHRACVHVYKVLELYEEAVDLALQVDVDLAKQCADLPEEDEELRKKLWLKIARHVVQEEEDVQTAMACLASCPLLKIEDVLPFFPDFVTIDHFKEAICSSLKAYNHHIQELQREMEEATASAQRIRRDLQELRGRYGTVEPQDKCATCDFPLLNRPFYLFLCGHMFHADCLLQAVRPGLPAYKQARLEELQRKLGAAPPPAKGSARAKEAEGGAATAGPSREQLKADLDELVAAECVYCGELMIRSIDRPFIDPQRYEEEQLSWL
2 | 0.31 relative to control cells | 0.66 relative to control cells | VPS11 (natural protein, human (endogenous in HEK293), UniProt Q9H270 1-941, looked up, VPS11, shared class C core subunit of HOPS and CORVET, detected by anti-VPS11 western blot in anti-FLAG precipitates; also called core subunit VPS11; source: endogenous, HEK293 lysate) MAAYLQWRRFVFFDKELVKEPLSNDGAAPGATPASGSAASKFLCLPPGITVCDSGRGSLVFGDMEGQIWFLPRSLQLTGFQAYKLRVTHLYQLKQHNILASVGEDEEGINPLVKIWNLEKRDGGNPLCTRIFPAIPGTEPTVVSCLTVHENLNFMAIGFTDGSVTLNKGDITRDRHSKTQILHKGNYPVTGLAFRQAGKTTHLFVVTTENVQSYIVSGKDYPRVELDTHGCGLRCSALSDPSQDLQFIVAGDECVYLYQPDERGPCFAFEGHKLIAHWFRGYLIIVSRDRKVSPKSEFTSRDSQSSDKQILNIYDLCNKFIAYSTVFEDVVDVLAEWGSLYVLTRDGRVHALQEKDTQTKLEMLFKKNLFEMAINLAKSQHLDSDGLAQIFMQYGDHLYSKGNHDGAVQQYIRTIGKLEPSYVIRKFLDAQRIHNLTAYLQTLHRQSLANADHTTLLLNCYTKLKDSSKLEEFIKKKSESEVHFDVETAIKVLRQAGYYSHALYLAENHAHHEWYLKIQLEDIKNYQEALRYIGKLPFEQAESNMKRYGKILMHHIPEQTTQLLKGLCTDYRPSLEGRSDREAPGCRANSEEFIPIFANNPRELKAFLEHMSEVQPDSPQGIYDTLLELRLQNWAHEKDPQVKEKLHAEAISLLKSGRFCDVFDKALVLCQMHDFQDGVLYLYEQGKLFQQIMHYHMQHEQYRQVISVCERHGEQDPSLWEQALSYFARKEEDCKEYVAAVLKHIENKNLMPPLLVVQTLAHNSTATLSVIRDYLVQKLQKQSQQIAQDELRVRRYREETTRIRQEIQELKASPKIFQKTKCSICNSALELPSVHFLCGHSFHQHCFESYSESDADCPTCLPENRKVMDMIRAQEQKRDLHDQFQHQLKCSNDSFSVIADYFGRGVFNKLTLLTDPPTARLTSSLEAGLQRDLLMHSRRGT
